Measured values from US20230406885A1, “CYCLIC PEPTIDES FOR TRAPPING INTERLEUKIN-1 BETA” (MERCK SHARP & DOHME LLC, priority 2022, published 2023).
*1 amine or outer side, *2 acyl side, *3 side chain or, on linkers, in order; H or OH if unused. Primed or numbered codes have the meaning given here. [ ]: non-standard residue; d: D form. TyrEtNAc = L-tyrosine O-ethyl acetamide, (S)-3-(4-(2-acetamidoethoxy)phenyl)-2-aminopropanoic acid, CC(=O)NCCOc1ccc(C[C@H](N[*:1])C(=O)[*:2])cc1; AEF′ = (S)-2-amino-3-(6-(2-aminoethoxy)pyridin-3-yl)propanoic acid, O=C([C@H](Cc1ccc(OCCN[*:3])nc1)N[*:1])[*:2]; AbuMph = (S)-2-amino-4-morpholinobutanoic acid, O=C([C@H](CCN1CCOCC1)N[*:1])[*:2]; Ala(piperidin-4-yl) = O=C([C@H](CC1CCN([*:3])CC1)N[*:1])[*:2]; Pro(trans-4-NH2) = O=C([C@@H]1C[C@@H](N[*:3])CN1[*:1])[*:2]; Trp(βS-Me,4-F) = C[C@@H](c1c[nH]c2cccc(F)c12)[C@H](N)C(=O)O; Bip(4'-COOH) = N[C@@H](Cc1ccc(-c2ccc(C(=O)O)cc2)cc1)C(=O)O; Phe(4-COOH) = N[C@@H](Cc1ccc(C(=O)O)cc1)C(=O)O; h3Pal(5-CN) = N#Cc1cncc(CC[C@H](N)C(=O)O)c1; hTyr = N[C@@H](CCc1ccc(O)cc1)C(=O)O; hPhe = N[C@@H](CCc1ccccc1)C(=O)O; dOrn = NCCC[C@@H](N)C(=O)O; dDab = NCC[C@@H](N)C(=O)O; dNMeA = CN[C@H](C)C(=O)O; Dab = NCC[C@H](N)C(=O)O

Molecular target: Recombinant human IL-1β (BioLegend 579404) (human, UniProt P01584 117-269)
Experiment: cell-based or functional assay

MRC5 IC50 | Binder
0.0847 nM | cyclo([TyrEtNAc]W[Phe(4-COOH)]G[Pro(trans-4-NH2)][Trp(βS-Me,4-F)]D[dNMeA]G[Bip(4'-COOH)]WL[dDab][hTyr]) (SMILES CC(=O)NCCOc1ccc(C[C@@H]2NC(=O)[C@H](CCc3ccc(O)cc3)NC(=O)[C@@H](CCN)NC(=O)[C@H](CC(C)C)NC(=O)[C@H](Cc3c[nH]c4ccccc34)NC(=O)[C@H](Cc3ccc(-c4ccc(C(=O)O)cc4)cc3)NC(=O)CNC(=O)[C@@H](C)N(C)C(=O)[C@H](CC(=O)O)NC(=O)[C@H]([C@@H](C)c3c[nH]c4cccc(F)c34)NC(=O)[C@@H]3C[C@@H](N)CN3C(=O)CNC(=O)[C@H](Cc3ccc(C(=O)O)cc3)NC(=O)[C@H](Cc3c[nH]c4ccccc34)NC2=O)cc1) [SEQ ID NO: 168 (Example No. 168)]
0.112 nM | cyclo([TyrEtNAc]W[Phe(4-COOH)]G[Pro(trans-4-NH2)][Trp(βS-Me,4-F)]D[dNMeA]G[Bip(4'-COOH)]WL[dK][hTyr]) (SMILES CC(=O)NCCOc1ccc(C[C@@H]2NC(=O)[C@H](CCc3ccc(O)cc3)NC(=O)[C@@H](CCCCN)NC(=O)[C@H](CC(C)C)NC(=O)[C@H](Cc3c[nH]c4ccccc34)NC(=O)[C@H](Cc3ccc(-c4ccc(C(=O)O)cc4)cc3)NC(=O)CNC(=O)[C@@H](C)N(C)C(=O)[C@H](CC(=O)O)NC(=O)[C@H]([C@@H](C)c3c[nH]c4cccc(F)c34)NC(=O)[C@@H]3C[C@@H](N)CN3C(=O)CNC(=O)[C@H](Cc3ccc(C(=O)O)cc3)NC(=O)[C@H](Cc3c[nH]c4ccccc34)NC2=O)cc1) [SEQ ID NO: 169 (Example No. 169)]
0.781 nM | cyclo([TyrEtNAc]W[Phe(4-COOH)]G[Pro(trans-4-NH2)][Trp(βS-Me,4-F)]D[dNMeA]G[Bip(4'-COOH)]WL[dA][Ala(piperidin-4-yl)]) (SMILES CC(=O)NCCOc1ccc(C[C@@H]2NC(=O)[C@H](CC3CCNCC3)NC(=O)[C@@H](C)NC(=O)[C@H](CC(C)C)NC(=O)[C@H](Cc3c[nH]c4ccccc34)NC(=O)[C@H](Cc3ccc(-c4ccc(C(=O)O)cc4)cc3)NC(=O)CNC(=O)[C@@H](C)N(C)C(=O)[C@H](CC(=O)O)NC(=O)[C@H]([C@@H](C)c3c[nH]c4cccc(F)c34)NC(=O)[C@@H]3C[C@@H](N)CN3C(=O)CNC(=O)[C@H](Cc3ccc(C(=O)O)cc3)NC(=O)[C@H](Cc3c[nH]c4ccccc34)NC2=O)cc1) [SEQ ID NO: 165 (Example No. 165)]
0.136 nM | cyclo([TyrEtNAc]W[Phe(4-COOH)]G[Pro(trans-4-NH2)][Trp(βS-Me,4-F)]D[dNMeA]G[Bip(4'-COOH)]WL[dA][hTyr]) (SMILES CC(=O)NCCOc1ccc(C[C@@H]2NC(=O)[C@H](CCc3ccc(O)cc3)NC(=O)[C@@H](C)NC(=O)[C@H](CC(C)C)NC(=O)[C@H](Cc3c[nH]c4ccccc34)NC(=O)[C@H](Cc3ccc(-c4ccc(C(=O)O)cc4)cc3)NC(=O)CNC(=O)[C@@H](C)N(C)C(=O)[C@H](CC(=O)O)NC(=O)[C@H]([C@@H](C)c3c[nH]c4cccc(F)c34)NC(=O)[C@@H]3C[C@@H](N)CN3C(=O)CNC(=O)[C@H](Cc3ccc(C(=O)O)cc3)NC(=O)[C@H](Cc3c[nH]c4ccccc34)NC2=O)cc1) [SEQ ID NO: 167 (Example No. 167)]
0.0966 nM | cyclo([TyrEtNAc]W[Phe(4-COOH)]G[Pro(trans-4-NH2)][Trp(βS-Me,4-F)]D[dNMeA]G[Bip(4'-COOH)]WL[dOrn][hTyr]) (SMILES CC(=O)NCCOc1ccc(C[C@@H]2NC(=O)[C@H](CCc3ccc(O)cc3)NC(=O)[C@@H](CCCN)NC(=O)[C@H](CC(C)C)NC(=O)[C@H](Cc3c[nH]c4ccccc34)NC(=O)[C@H](Cc3ccc(-c4ccc(C(=O)O)cc4)cc3)NC(=O)CNC(=O)[C@@H](C)N(C)C(=O)[C@H](CC(=O)O)NC(=O)[C@H]([C@@H](C)c3c[nH]c4cccc(F)c34)NC(=O)[C@@H]3C[C@@H](N)CN3C(=O)CNC(=O)[C@H](Cc3ccc(C(=O)O)cc3)NC(=O)[C@H](Cc3c[nH]c4ccccc34)NC2=O)cc1) [SEQ ID NO: 170 (Example No. 170)]
0.522 nM | cyclo([TyrEtNAc]W[Phe(4-COOH)]G[Pro(trans-4-NH2)][Trp(βS-Me,4-F)]D[dNMeA]G[Bip(4'-COOH)]KL[dDab][hTyr]) (SMILES CC(=O)NCCOc1ccc(C[C@@H]2NC(=O)[C@H](CCc3ccc(O)cc3)NC(=O)[C@@H](CCN)NC(=O)[C@H](CC(C)C)NC(=O)[C@H](CCCCN)NC(=O)[C@H](Cc3ccc(-c4ccc(C(=O)O)cc4)cc3)NC(=O)CNC(=O)[C@@H](C)N(C)C(=O)[C@H](CC(=O)O)NC(=O)[C@H]([C@@H](C)c3c[nH]c4cccc(F)c34)NC(=O)[C@@H]3C[C@@H](N)CN3C(=O)CNC(=O)[C@H](Cc3ccc(C(=O)O)cc3)NC(=O)[C@H](Cc3c[nH]c4ccccc34)NC2=O)cc1) [SEQ ID NO: 160 (Example No. 160)]
0.156 nM | cyclo([TyrEtNAc]W[Phe(4-COOH)]G[Pro(trans-4-NH2)][Trp(βS-Me,4-F)]D[dNMeA]G[Bip(4'-COOH)]W[Dab][dA][hPhe]) (SMILES CC(=O)NCCOc1ccc(C[C@@H]2NC(=O)[C@H](CCc3ccccc3)NC(=O)[C@@H](C)NC(=O)[C@H](CCN)NC(=O)[C@H](Cc3c[nH]c4ccccc34)NC(=O)[C@H](Cc3ccc(-c4ccc(C(=O)O)cc4)cc3)NC(=O)CNC(=O)[C@@H](C)N(C)C(=O)[C@H](CC(=O)O)NC(=O)[C@H]([C@@H](C)c3c[nH]c4cccc(F)c34)NC(=O)[C@@H]3C[C@@H](N)CN3C(=O)CNC(=O)[C@H](Cc3ccc(C(=O)O)cc3)NC(=O)[C@H](Cc3c[nH]c4ccccc34)NC2=O)cc1) [SEQ ID NO: 163 (Example No. 163)]
0.749 nM | cyclo([TyrEtNAc]W[Phe(4-COOH)]G[Pro(trans-4-NH2)][Trp(βS-Me,4-F)]D[dNMeA]G[Bip(4'-COOH)]W[AbuMph][dA]G) (SMILES CC(=O)NCCOc1ccc(C[C@@H]2NC(=O)CNC(=O)[C@@H](C)NC(=O)[C@H](CCN3CCOCC3)NC(=O)[C@H](Cc3c[nH]c4ccccc34)NC(=O)[C@H](Cc3ccc(-c4ccc(C(=O)O)cc4)cc3)NC(=O)CNC(=O)[C@@H](C)N(C)C(=O)[C@H](CC(=O)O)NC(=O)[C@H]([C@@H](C)c3c[nH]c4cccc(F)c34)NC(=O)[C@@H]3C[C@@H](N)CN3C(=O)CNC(=O)[C@H](Cc3ccc(C(=O)O)cc3)NC(=O)[C@H](Cc3c[nH]c4ccccc34)NC2=O)cc1) [SEQ ID NO: 162 (Example No. 162)]
0.0257 nM | cyclo([TyrEtNAc]W[Phe(4-COOH)]G[Pro(trans-4-NH2)][Trp(βS-Me,4-F)]D[dNMeA]G[Bip(4'-COOH)]KL[dA][h3Pal(5-CN)]) (SMILES CC(=O)NCCOc1ccc(C[C@@H]2NC(=O)[C@H](CCc3cncc(C#N)c3)NC(=O)[C@@H](C)NC(=O)[C@H](CC(C)C)NC(=O)[C@H](CCCCN)NC(=O)[C@H](Cc3ccc(-c4ccc(C(=O)O)cc4)cc3)NC(=O)CNC(=O)[C@@H](C)N(C)C(=O)[C@H](CC(=O)O)NC(=O)[C@H]([C@@H](C)c3c[nH]c4cccc(F)c34)NC(=O)[C@@H]3C[C@@H](N)CN3C(=O)CNC(=O)[C@H](Cc3ccc(C(=O)O)cc3)NC(=O)[C@H](Cc3c[nH]c4ccccc34)NC2=O)cc1) [SEQ ID NO: 158 (Example No. 158)]
0.459 nM | cyclo([TyrEtNAc]W[Phe(4-COOH)]G[Pro(trans-4-NH2)][Trp(βS-Me,4-F)]D[dNMeA]G[Bip(4'-COOH)]WL[dA][AEF′]) [SEQ ID NO: 164 (Example No. 164)]
0.118 nM | cyclo([TyrEtNAc]W[Phe(4-COOH)]G[Pro(trans-4-NH2)][Trp(βS-Me,4-F)]D[dNMeA]G[Bip(4'-COOH)]KL[dA][hTyr]) (SMILES CC(=O)NCCOc1ccc(C[C@@H]2NC(=O)[C@H](CCc3ccc(O)cc3)NC(=O)[C@@H](C)NC(=O)[C@H](CC(C)C)NC(=O)[C@H](CCCCN)NC(=O)[C@H](Cc3ccc(-c4ccc(C(=O)O)cc4)cc3)NC(=O)CNC(=O)[C@@H](C)N(C)C(=O)[C@H](CC(=O)O)NC(=O)[C@H]([C@@H](C)c3c[nH]c4cccc(F)c34)NC(=O)[C@@H]3C[C@@H](N)CN3C(=O)CNC(=O)[C@H](Cc3ccc(C(=O)O)cc3)NC(=O)[C@H](Cc3c[nH]c4ccccc34)NC2=O)cc1) [SEQ ID NO: 159 (Example No. 159)]
0.483 nM | cyclo([TyrEtNAc]W[Phe(4-COOH)]G[Pro(trans-4-NH2)][Trp(βS-Me,4-F)]D[dNMeA]G[Bip(4'-COOH)]KL[dS][hTyr]) (SMILES CC(=O)NCCOc1ccc(C[C@@H]2NC(=O)[C@H](CCc3ccc(O)cc3)NC(=O)[C@@H](CO)NC(=O)[C@H](CC(C)C)NC(=O)[C@H](CCCCN)NC(=O)[C@H](Cc3ccc(-c4ccc(C(=O)O)cc4)cc3)NC(=O)CNC(=O)[C@@H](C)N(C)C(=O)[C@H](CC(=O)O)NC(=O)[C@H]([C@@H](C)c3c[nH]c4cccc(F)c34)NC(=O)[C@@H]3C[C@@H](N)CN3C(=O)CNC(=O)[C@H](Cc3ccc(C(=O)O)cc3)NC(=O)[C@H](Cc3c[nH]c4ccccc34)NC2=O)cc1) [SEQ ID NO: 161 (Example No. 161)]
0.149 nM | cyclo([TyrEtNAc]W[Phe(4-COOH)]G[Pro(trans-4-NH2)][Trp(βS-Me,4-F)]D[dNMeA]G[Bip(4'-COOH)]WL[dA][hPhe]) (SMILES CC(=O)NCCOc1ccc(C[C@@H]2NC(=O)[C@H](CCc3ccccc3)NC(=O)[C@@H](C)NC(=O)[C@H](CC(C)C)NC(=O)[C@H](Cc3c[nH]c4ccccc34)NC(=O)[C@H](Cc3ccc(-c4ccc(C(=O)O)cc4)cc3)NC(=O)CNC(=O)[C@@H](C)N(C)C(=O)[C@H](CC(=O)O)NC(=O)[C@H]([C@@H](C)c3c[nH]c4cccc(F)c34)NC(=O)[C@@H]3C[C@@H](N)CN3C(=O)CNC(=O)[C@H](Cc3ccc(C(=O)O)cc3)NC(=O)[C@H](Cc3c[nH]c4ccccc34)NC2=O)cc1) [SEQ ID NO: 166 (Example No. 166)]
